B1: glmS ribozyme (parent)
chain: AUAAAAGCGCCAGAACUACAGAAAUGUAGUUGACGAGGAGGAGGUUUAUCGAAUUUUCGGCGGAUGCCUCCAAA

Holding throughout (details): with glucosamine-6-phosphate
The variants in data set [1] derive from B1. In words: kcat; higher = faster cleavage; RNA array. In a few lines: (§1)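 Over ~14 h at 37 °C, tiles were imaged as glucosamine-6-phosphate (40 μM to 10 mM) in HEPES/KCl/Mg(OAc)2 buffer flowed across sequenced MiSeq chips. The chips carried barcoded ribozyme variants transcribed in situ by E. coli RNA polymerase and tracked with a hybridised Cy3 probe. After normalisation to baseline and to non-cleaving reference variants, one- or two-exponential decay fits of per-tile medians gave kobs. kcat and KM followed from weighted Michaelis–Menten fits across concentrations.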

In data set [2] the parent is B1. Kind of data set: self-cleavage kobs at 40 uM GlcN6P; higher = faster cleavage; RNA array. In a few lines:
as §1

Data set [3] covers variants of B1. In words: self-cleavage kobs at 2500 uM GlcN6P; higher = faster cleavage; RNA array. In a few lines: as §1
Variants of B1 are the subject of data set [4]. In words: self-cleavage kobs at 10000 uM GlcN6P; higher = faster cleavage; RNA array. In a few lines: as §1
The variants in data set [5] derive from B1. In words: self-cleavage kobs at 160 uM GlcN6P; higher = faster cleavage; RNA array. In a few lines: as §1
The variants in data set [6] derive from B1. In words: KM; higher = weaker cofactor use; RNA array. In a few lines:
as §1

Variants of B1 are the subject of data set [7]. Kind of data set: self-cleavage kobs at 640 uM GlcN6P; higher = faster cleavage; RNA array. In a few lines:
as §1

± gives the standard error. For some assays here: Fewer inactive variants are shown than the library holds.

With G29A G63C, in the data set with glucosamine-6-phosphate [1], the kcat (in general, the number of substrate molecules converted per active site and unit of time at saturation) is under 1e-05 s⁻¹. Further, the “self-cleavage kobs at 40 uM GlcN6P” value in the data set with glucosamine-6-phosphate [2] was under 1e-05 s⁻¹. Further, the “self-cleavage kobs at 2500 uM GlcN6P” value in the data set with glucosamine-6-phosphate [3] is under 1e-05 s⁻¹. For the same variant, the “self-cleavage kobs at 10000 uM GlcN6P” value with glucosamine-6-phosphate [4] is under 1e-05 s⁻¹.
With A48G G63A, the kcat in the data set with glucosamine-6-phosphate [1] was under 1e-05 s⁻¹. In addition, the “self-cleavage kobs at 40 uM GlcN6P” value in the data set with glucosamine-6-phosphate [2] was under 1e-05 s⁻¹. Besides, in the data set with glucosamine-6-phosphate [5], the “self-cleavage kobs at 160 uM GlcN6P” value was under 1e-05 s⁻¹.
Take A39U U56C: the kcat with glucosamine-6-phosphate [1] turned out to be 0.00176 ± 0.00058 s⁻¹. In addition, the KM (usually the substrate concentration at which the rate is half of its maximum) in the data set with glucosamine-6-phosphate [6] is 2130 ± 950 µM. In the data set with glucosamine-6-phosphate [2], the “self-cleavage kobs at 40 uM GlcN6P” value came to 3.9e-05 ± 8.2e-06 s⁻¹. Besides, in the data set with glucosamine-6-phosphate [5], the “self-cleavage kobs at 160 uM GlcN6P” value came out at 0.000149 ± 2.8e-05 s⁻¹. Further, the “self-cleavage kobs at 640 uM GlcN6P” value with glucosamine-6-phosphate [7] was 0.000351 ± 5.4e-05 s⁻¹. For the same variant, the “self-cleavage kobs at 2500 uM GlcN6P” value with glucosamine-6-phosphate [3] was 0.000804 ± 0.00019 s⁻¹. For the same variant, the “self-cleavage kobs at 10000 uM GlcN6P” value in the data set with glucosamine-6-phosphate [4] worked out at 0.00192 ± 0.0004 s⁻¹.
In the case of A39U U56G, the kcat in the data set with glucosamine-6-phosphate [1] is 0.0257 ± 0.011 s⁻¹. The “self-cleavage kobs at 40 uM GlcN6P” value with glucosamine-6-phosphate [2] turned out to be 0.000177 ± 2.7e-05 s⁻¹. In the data set with glucosamine-6-phosphate [5], the “self-cleavage kobs at 160 uM GlcN6P” value was 0.000402 ± 8.7e-05 s⁻¹. Besides, the “self-cleavage kobs at 640 uM GlcN6P” value with glucosamine-6-phosphate [7] came to 0.0021 ± 0.00031 s⁻¹. The “self-cleavage kobs at 2500 uM GlcN6P” value with glucosamine-6-phosphate [3] is 0.00893 ± 0.0013 s⁻¹. Besides, in the data set with glucosamine-6-phosphate [4], the “self-cleavage kobs at 10000 uM GlcN6P” value amounted to 0.0139 ± 0.0021 s⁻¹.
Turning to C16A A64G, in the data set with glucosamine-6-phosphate [1], the kcat is 0.00134 ± 0.00022 s⁻¹. Further, in the data set with glucosamine-6-phosphate [6], the KM was 2060 ± 520 µM. For the same variant, the “self-cleavage kobs at 40 uM GlcN6P” value with glucosamine-6-phosphate [2] worked out at 3.87e-05 ± 8.2e-06 s⁻¹. The “self-cleavage kobs at 160 uM GlcN6P” value with glucosamine-6-phosphate [5] was 9.99e-05 ± 1.3e-05 s⁻¹. Further, the “self-cleavage kobs at 640 uM GlcN6P” value in the data set with glucosamine-6-phosphate [7] was 0.000277 ± 3.5e-05 s⁻¹. Moreover, the “self-cleavage kobs at 2500 uM GlcN6P” value with glucosamine-6-phosphate [3] amounted to 0.000757 ± 7.7e-05 s⁻¹. Moreover, in the data set with glucosamine-6-phosphate [4], the “self-cleavage kobs at 10000 uM GlcN6P” value was 0.00113 ± 0.00015 s⁻¹.
A6C C68G: the kcat with glucosamine-6-phosphate [1] was under 1e-05 s⁻¹. The “self-cleavage kobs at 40 uM GlcN6P” value with glucosamine-6-phosphate [2] is under 1e-05 s⁻¹. The “self-cleavage kobs at 640 uM GlcN6P” value with glucosamine-6-phosphate [7] was under 1e-05 s⁻¹.
G32C: the turnover number (kcat) in the data set with glucosamine-6-phosphate [1] was 0.000139 ± 1.7e-06 s⁻¹. Further, the KM with glucosamine-6-phosphate [6] was 3460 ± 110 µM. In the data set with glucosamine-6-phosphate [7], the “self-cleavage kobs at 640 uM GlcN6P” value was determined as 2.26e-05 ± 1.4e-06 s⁻¹. In addition, the “self-cleavage kobs at 2500 uM GlcN6P” value in the data set with glucosamine-6-phosphate [3] worked out at 5.77e-05 ± 1.3e-06 s⁻¹. Moreover, the “self-cleavage kobs at 10000 uM GlcN6P” value in the data set with glucosamine-6-phosphate [4] was found to be 0.000103 ± 1.4e-06 s⁻¹.
Regarding G32A, the kcat with glucosamine-6-phosphate [1] is 0.00528 ± 0.00074 s⁻¹. Besides, the KM with glucosamine-6-phosphate [6] was determined as 4250 ± 750 µM. Further, the “self-cleavage kobs at 40 uM GlcN6P” value in the data set with glucosamine-6-phosphate [2] stood at 5.63e-05 ± 1.2e-06 s⁻¹. Moreover, the “self-cleavage kobs at 160 uM GlcN6P” value with glucosamine-6-phosphate [5] was 0.000185 ± 5.1e-06 s⁻¹. In addition, the “self-cleavage kobs at 640 uM GlcN6P” value with glucosamine-6-phosphate [7] amounted to 0.00064 ± 1.1e-05 s⁻¹. The “self-cleavage kobs at 2500 uM GlcN6P” value with glucosamine-6-phosphate [3] was determined as 0.00219 ± 7.7e-05 s⁻¹. The “self-cleavage kobs at 10000 uM GlcN6P” value with glucosamine-6-phosphate [4] stood at 0.00372 ± 7.6e-05 s⁻¹.
As for G29U U47C, the kcat with glucosamine-6-phosphate [1] turned out to be 0.000228 ± 1.3e-05 s⁻¹. Besides, the KM in the data set with glucosamine-6-phosphate [6] is 1050 ± 180 µM. Also, the “self-cleavage kobs at 160 uM GlcN6P” value with glucosamine-6-phosphate [5] worked out at 4.21e-05 ± 1.6e-05 s⁻¹. The “self-cleavage kobs at 640 uM GlcN6P” value in the data set with glucosamine-6-phosphate [7] stood at 8.08e-05 ± 1.4e-05 s⁻¹. Further, the “self-cleavage kobs at 2500 uM GlcN6P” value with glucosamine-6-phosphate [3] came to 0.00017 ± 2.9e-05 s⁻¹. Also, the “self-cleavage kobs at 10000 uM GlcN6P” value with glucosamine-6-phosphate [4] stood at 0.000206 ± 1.8e-05 s⁻¹.
On to U31C U55A, for which, in the data set with glucosamine-6-phosphate [1], the kcat turned out to be 0.00809 ± 0.0017 s⁻¹. Also, the KM in the data set with glucosamine-6-phosphate [6] was determined as 3270 ± 1100 µM. In addition, the “self-cleavage kobs at 40 uM GlcN6P” value in the data set with glucosamine-6-phosphate [2] stood at 0.000152 ± 2.3e-05 s⁻¹. Further, the “self-cleavage kobs at 160 uM GlcN6P” value with glucosamine-6-phosphate [5] stood at 0.000289 ± 6.8e-05 s⁻¹. In addition, the “self-cleavage kobs at 640 uM GlcN6P” value in the data set with glucosamine-6-phosphate [7] was determined as 0.00126 ± 0.00017 s⁻¹. Moreover, in the data set with glucosamine-6-phosphate [3], the “self-cleavage kobs at 2500 uM GlcN6P” value was 0.00333 ± 0.00051 s⁻¹. Also, in the data set with glucosamine-6-phosphate [4], the “self-cleavage kobs at 10000 uM GlcN6P” value was determined as 0.00623 ± 0.00059 s⁻¹.
As to A39C U46G, in the data set with glucosamine-6-phosphate [1], the kcat is 0.000897 ± 0.00012 s⁻¹. Also, the KM with glucosamine-6-phosphate [6] is 2000 ± 420 µM. The “self-cleavage kobs at 160 uM GlcN6P” value with glucosamine-6-phosphate [5] was determined as 6.87e-05 ± 9.7e-06 s⁻¹. Also, the “self-cleavage kobs at 640 uM GlcN6P” value with glucosamine-6-phosphate [7] was found to be 0.000224 ± 2e-05 s⁻¹. In the data set with glucosamine-6-phosphate [3], the “self-cleavage kobs at 2500 uM GlcN6P” value came out at 0.00042 ± 6.2e-05 s⁻¹. In the data set with glucosamine-6-phosphate [4], the “self-cleavage kobs at 10000 uM GlcN6P” value amounted to 0.000829 ± 0.0001 s⁻¹.
As for A52U A53G, in the data set with glucosamine-6-phosphate [1], the turnover number (kcat) is 0.000144 ± 7.6e-06 s⁻¹. In addition, in the data set with glucosamine-6-phosphate [6], the KM is 2980 ± 430 µM. Further, in the data set with glucosamine-6-phosphate [2], the “self-cleavage kobs at 40 uM GlcN6P” value was under 1e-05 s⁻¹. Moreover, the “self-cleavage kobs at 640 uM GlcN6P” value in the data set with glucosamine-6-phosphate [7] was determined as 3.11e-05 ± 1.3e-05 s⁻¹. Also, the “self-cleavage kobs at 2500 uM GlcN6P” value with glucosamine-6-phosphate [3] was found to be 6.31e-05 ± 9.5e-06 s⁻¹. In the data set with glucosamine-6-phosphate [4], the “self-cleavage kobs at 10000 uM GlcN6P” value was found to be 0.000111 ± 1e-05 s⁻¹.
Turning to G37C C68U, in the data set with glucosamine-6-phosphate [1], the kcat worked out at 1.59e-05 ± 1.1e-06 s⁻¹. Besides, the “self-cleavage kobs at 40 uM GlcN6P” value with glucosamine-6-phosphate [2] is under 1e-05 s⁻¹.
For G29A U46C, in the data set with glucosamine-6-phosphate [1], the kcat was 0.00025 ± 1.1e-05 s⁻¹. In addition, in the data set with glucosamine-6-phosphate [6], the KM is 1880 ± 160 µM. Besides, the “self-cleavage kobs at 640 uM GlcN6P” value with glucosamine-6-phosphate [7] amounted to 6.39e-05 ± 2e-05 s⁻¹. Moreover, the “self-cleavage kobs at 2500 uM GlcN6P” value in the data set with glucosamine-6-phosphate [3] is 0.000139 ± 3.1e-05 s⁻¹. The “self-cleavage kobs at 10000 uM GlcN6P” value with glucosamine-6-phosphate [4] was found to be 0.000216 ± 6.1e-05 s⁻¹.

Source of the values: the supplement of paper PMC7125110.
